In patent US20120114590A1 (priority 2005, published 2012):
Where two headings read alike, the source gives them in different places. mPEG 20 kDa propionaldehyde = 20 kD methoxy-polyethylene glycol propionaldehyde, N-terminally conjugated

Assays:
HSV-2 = HSV-2 inhibition of cytopathic effect assay in Vero cells; format: cell-based, Herpes Simplex Virus-2; conditions: CPE assay
Method: The assay involves the killing of Vero cells by the cytopathic HSV-2 virus and the inhibition of cell killing by IL-28 and EL-29. The Vero cells are propagated in Dulbecco's modified essential medium (DMEM) containing phenol red with 10% horse serum, 1% glutamine and 1% penicillin-streptomycin, while the CPE inhibition assays are performed in DMEM without phenol red with 2% FBS, 1% glutamine and 1% Pen-Strep. On the day preceding the assays, cells were trypsinized (1% trypsin-EDTA), washed, counted and plated out at 10^4 cells/well in a 96-well flat-bottom BioCoat® plates (Fisher Scientific, Pittsburgh, Pa.) in a volume of 100 μl/well. The next morning, the medium was removed and a pre-titered aliquot of virus was added to the cells. The amount of virus used is the maximum dilution that would yield complete cell killing (>80%) at the time of maximal CPE development. Cell viability is determined using a CellTiter 96® reagent (Promega) according to the manufacturer's protocol, using a Vmax plate reader (Molecular Devices, Sunnyvale, Calif.). Compounds are tested at six concentrations each, diluted in assay medium in a half-log series. Acyclovir was used as a positive control. […] The average background and drug color-corrected data for percent CPE reduction and percent cell viability at each concentration are determined relative to controls and the IC50 calculated relative to the TC50.

HCV replicon [1] = conditions: IFNα at 10 IU/ml, replicon clones, compared to untreated control cell lines; cited from earlier work
HCV replicon [2] = experiment: HCV Replicon model in AVA5 cells, HCV RNA by dot blot hybridization assay; conditions: three consecutive days of treatment
Daudi cells = experiment: Daudi cell proliferation (Alamar Blue); format: cell-based, human; conditions: 1000 ng/ml to 0.5 ng/ml, 72 h
Method: Human Daudi cells were suspended in RPMI+10% FBS at 50,000 cells/milliliter and 5000 cells were plated per well in a 96 well plate. […] IL-29-CEE was used at a concentration range of from 1000 ng/ml to 0.5 ng/ml. […] IFN-α2a was used at a concentration range of from 62 ng/ml to 0.03 ng/ml. Cells were incubated for 72 h at 37° C.

[3] = tested on: 293 HEK cells overexpressing zcytor19; experiment: Inhibition of ligand-induced ISRE-luciferase signaling by soluble receptors; format: cell-based, human; conditions: 10 ng/ml ligand, 10 micrograms/ml soluble receptor, 4-hour; relative to PBS alone
Adenovirus [4] = format: cell-based
Parainfluenza virus [5] = format: cell-based
[6] = tested on: Respiratory syncytial virus; format: cell-based
Rhino 2 [7] = format: cell-based, rhino virus; conditions: Rhino 2, KB
Rhino 9 [8] = format: cell-based, rhino virus; conditions: Rhino 9, HeLa
Coxsackie B4 virus [9] = format: cell-based; conditions: KB
[10] = tested on: Influenza (type A [H3N2]); format: cell-based; conditions: Maden-Darby Canine Kidney
[11] = tested on: Influenza (type A [H3N2]); format: cell-based; conditions: Vero
Vaccinia virus [12] = format: cell-based; conditions: Vero
West Nile virus [13] = format: cell-based; conditions: Vero
Dengue virus [14] = format: cell-based; conditions: Vero
[15] = tested on: Venezuelan equine encephalitis virus; format: cell-based; conditions: Vero
Pichinde virus [16] = format: cell-based
Polio virus [17] = format: cell-based; conditions: Vero
Adenovirus [18] = format: cell-based; conditions: A549 cells, Neutral Red Assay
Parainfluenza virus [19] = format: cell-based; conditions: MA-104 cells, Neutral Red Assay
[20] = tested on: Respiratory syncytial virus; format: cell-based; conditions: MA-104 cells, Neutral Red Assay
Rhino 2 [21] = format: cell-based, rhino virus; conditions: Rhino 2, KB cells, Neutral Red Assay
Rhino 9 [22] = format: cell-based, rhino virus; conditions: Rhino 9, HeLa cells, Neutral Red Assay
Coxsackie B4 virus [23] = format: cell-based; conditions: KB cells, Neutral Red Assay
[24] = tested on: Influenza (type A [H3N2]); format: cell-based; conditions: Maden-Darby Canine Kidney cells, Neutral Red Assay
[25] = tested on: Influenza (type A [H3N2]); format: cell-based; conditions: Vero cells, Neutral Red Assay
Vaccinia virus [26] = format: cell-based; conditions: Vero cells, Neutral Red Assay
West Nile virus [27] = format: cell-based; conditions: Vero cells, Neutral Red Assay
Dengue virus [28] = format: cell-based; conditions: Vero cells, Neutral Red Assay
[29] = tested on: Venezuelan equine encephalitis virus; format: cell-based; conditions: Vero cells, Neutral Red Assay
Pichinde virus [30] = format: cell-based; remark: listed apart in the source
Polio virus [31] = format: cell-based; conditions: Vero cells, Neutral Red Assay
AML-12 cells = experiment: ISG induction in the mouse liver cell line AML-12 (real-time PCR); format: cell-based; conditions: AML-12, 20 ng/ml, 48 hour time point; mRNA relative to HPRT gene expression
Method: AML-12 cells were plated in 6-well plates in complete DMEM media at a concentration of 2×10^6 cells/well. […] As a control, cells were either stimulated with mouse IFNα (positive control) or unstimulated (negative). […] RNA was isolated from cell pellets using RNAEasy-kit® (Qiagen, Valencia, Calif.). RNA was treated with DNase (Millipore, Billerica, Mass.) to clean RNA of any contaminating DNA. cDNA was generated using Perkin-Elmer RT mix. ISG gene induction was evaluated by real-time PCR using primers and probes specific for mouse OAS, Pkr and Mx1. To obtain quantitative data, HPRT real-time PCR was duplexed with ISG PCR. A standard curve was obtained using known amounts of RNA from IFN-stimulated mouse PBLs. All data are shown as expression relative to internal HPRT expression.

[32] = tested on: liver, spleen and blood of mice; experiment: ISG gene expression (OAS, Pkr, Mx1) in liver, spleen and blood of injected C57BL/6 mice (real-time PCR); format: in vivo, mouse; conditions: C57BL/6 mice, i.p or i.v, 10 μg-250 μg
Method: Mice were sacrificed at various time points (1 hr-48 hr). Spleens and livers were isolated from mice, and RNA was isolated. RNA was also isolated from the blood cells. The cells were pelleted and RNA isolated from pellets using RNAEasy®-kit (Qiagen). RNA was treated with DNase (Amicon) to rid RNA of any contaminating DNA. cDNA was generated using Perkin-Elmer RT mix (Perkin-Elmer). ISG gene induction was measured by real-time PCR using primers and probes specific for mouse OAS, Pkr and Mx1. To obtain quantitative data, HPRT real-time PCR was duplexed with ISG PCR. A standard curve was calculated using known amounts of IFN-stimulated mouse PBLs. All data are shown as expression relative to internal HPRT expression.

HHV-8 = HHV-8 replication in BCBL-1 cells (TaqMan PCR extracellular HHV-8 DNA; dye uptake TC50); format: cell-based, human herpesvirus-8; conditions: six days
Method: The therapeutic index (TI) is calculated as TC50/IC50.

In the case of IFNα, the “antiviral activity against HSV-2” value (HSV-2) is given as “no antiviral activity” and the “reduction of the amount of HCV RNA” value (HCV replicon [1]) is given as 85%.

B1: PEG-rIL-29-d2-7 (conjugate)
chain: {mPEG 20 kDa propionaldehyde}-MKPTTTGKGCHIGRFKSLSPQELASFKKARDALEESLKLKNWSCSSPVFPGNWDLRLLQVRERPVALEAELALTLKVLEAAAGPALEDVLDQPLHTLHHILSQLQACIQPQPTAGPRPRGRLHHWLHRLQEAPKKESAGCLEASVTFNLFRLLTRDLKYVADGNLSLRTSTHPEST
In the case of B1, the “EC50 (HCV RNA, dot blot hybridization assay)” value (HCV replicon [2]) is reported as 0.516 ng/mL.

B2: IL-29-CEE: IL-29 conjugated with glu tag (protein, UniProt Q8IU54 20-200, looked up)
Interferon lambda-1: GPVPTSKPTTTGKGCHIGRFKSLSPQELASFKKARDALEESLKLKNWSCSSPVFPGNWDLRLLQVRERPVALEAELALTLKVLEAAAGPALEDVLDQPLHTLHHILSQLQACIQPQPTAGPRPRGRLHHWLHRLQEAPKKESAGCLEASVTFNLFRLLTRDLKYVADGNLCLRTSTHPEST
modifications: Glu-Glu tag
notes: IL-29 conjugated with glu tag
In the case of B2, the “effect on proliferation of Daudi cells” value (Daudi cells) is reported as “no significant effect”.

B3: IL-28A: human IL-28A cytokine polypeptide (zcyto20), e.g. SEQ ID NO:18; CHO-derived in Examples 16 and 18 (protein, listed as Homo sapiens)
chain: MKLDMTGDCTPVLVLMAAVLTVTGAVPVARLHGALPDARGCHIAQFKSLSPQELQAFKRAKDALEESLLLKDCRCHSRLFPRTWDLRQLQVRERPMALEAELALTLKVLEATADTDPALVDVLDQPLHTLHHILSQFRACIQPQPTAGPRTRGRLHHWLYRLQEAPKKESPGCLEASVTFNLFRLLTRDLNCVASGDLCV
modifications: SIGNAL (1)...(25)
In the case of B3, the “Percent Inhibition of Ligand-induced ISRE Signaling by HuCRF2-4-Fc” value [3] is reported as 80%, the “Percent Inhibition of Ligand-induced ISRE Signaling by Huzcytor19-Fc” value [3] is reported as 92% and the “Percent Inhibition of Ligand-induced ISRE Signaling by Huzcytor19-Fc/huCRF2-4-Fc” value [3] is reported as 16%. The “Percent Inhibition of Ligand-induced ISRE Signaling by Muzcytor19-Ig” value [3] was 91%, the “EC50 Visual” value (Adenovirus [4]; A549) was over 10 µg/mL and the “IC50 Visual” value (Adenovirus [4]; A549, numerator of SI) was over 10 µg/mL. For the same molecule, the “EC50 Visual” value (Parainfluenza virus [5]; MA-104) was over 10 µg/mL, the “IC50 Visual” value (Parainfluenza virus [5]; MA-104, numerator of SI) was over 10 µg/mL and the “EC50 Visual” value ([6]; MA-104) was over 10 µg/mL. The “IC50 Visual” value ([6]; MA-104, numerator of SI) was over 10 µg/mL, the “EC50 Visual” value (Rhino 2 [7]) was over 10 µg/mL and the “IC50 Visual” value (Rhino 2 [7]; numerator of SI) was over 10 µg/mL. The “EC50 Visual” value (Rhino 9 [8]) was over 10 µg/mL, the “IC50 Visual” value (Rhino 9 [8]; numerator of SI) was over 10 µg/mL and the “EC50 Visual” value (Coxsackie B4 virus [9]) was over 10 µg/mL. For the same molecule, the “IC50 Visual” value (Coxsackie B4 virus [9]; numerator of SI) was over 10 µg/mL, the “EC50 Visual” value [10] was over 10 µg/mL and the “IC50 Visual” value ([10]; numerator of SI) was over 10 µg/mL. The “EC50 Visual” value [11] was 0.1 µg/mL, the “IC50 Visual” value ([11]; numerator of SI) was over 10 µg/mL and the “EC50 Visual” value (Vaccinia virus [12]) was over 10 µg/mL. For the same molecule, the “IC50 Visual” value (Vaccinia virus [12]; numerator of SI) was over 10 µg/mL, the “EC50 Visual” value (West Nile virus [13]) was 0.01 ng/mL and the “IC50 Visual” value (West Nile virus [13]; numerator of SI) was over 10 µg/mL. The “EC50 Visual” value (Dengue virus [14]) was 0.01 µg/mL, the “IC50 Visual” value (Dengue virus [14]; numerator of SI) was over 10 µg/mL and the “EC50 Visual” value [15] was 0.01 µg/mL. For the same molecule, the “IC50 Visual” value ([15]; numerator of SI) was over 10 µg/mL, the “EC50 Visual” value (Pichinde virus [16]) was over 10 µg/mL and the “IC50 Visual” value (Pichinde virus [16]) was over 10 µg/mL. The “EC50 Visual” value (Polio virus [17]) was over 10 µg/mL, the “IC50 Visual” value (Polio virus [17]; numerator of SI) was over 10 µg/mL and the “EC50 NR” value (Adenovirus [18]) was over 10 µg/mL. For the same molecule, the “IC50 NR” value (Adenovirus [18]) was over 10 µg/mL, the “EC50 NR” value (Parainfluenza virus [19]) was over 10 µg/mL and the “IC50 NR” value (Parainfluenza virus [19]) was over 10 µg/mL. The “EC50 NR” value [20] was over 10 µg/mL, the “IC50 NR” value [20] was over 10 µg/mL and the “EC50 NR” value (Rhino 2 [21]) was over 10 µg/mL. The “IC50 NR” value (Rhino 2 [21]) was over 10 µg/mL, the “EC50 NR” value (Rhino 9 [22]) was 1.726 µg/mL and the “IC50 NR” value (Rhino 9 [22]) was over 10 µg/mL. The “EC50 NR” value (Coxsackie B4 virus [23]) was over 10 µg/mL, the “IC50 NR” value (Coxsackie B4 virus [23]) was over 10 µg/mL and the “EC50 NR” value [24] was over 10 µg/mL. For the same molecule, the “IC50 NR” value [24] was over 10 µg/mL, the “EC50 NR” value [25] was 0.25 µg/mL and the “IC50 NR” value [25] was over 10 µg/mL. The “EC50 NR” value (Vaccinia virus [26]) was over 10 µg/mL, the “IC50 NR” value (Vaccinia virus [26]) was over 10 µg/mL and the “EC50 NR” value (West Nile virus [27]) was 0.1 ng/mL. For the same molecule, the “IC50 NR” value (West Nile virus [27]) was over 10 µg/mL, the “EC50 NR” value (Dengue virus [28]) was 0.1 µg/mL and the “IC50 NR” value (Dengue virus [28]) was over 10 µg/mL. For the same molecule, the “EC50 NR” value [29] was 0.035 µg/mL, the “IC50 NR” value [29] was over 10 µg/mL and the “EC50 NR” value (Pichinde virus [30]) was over 10 µg/mL. For the same molecule, the “IC50 NR” value (Pichinde virus [30]) was over 10 µg/mL, the “EC50 NR” value (Polio virus [31]) was over 1.672 µg/mL and the “IC50 NR” value (Polio virus [31]) was over 10 µg/mL. For the same molecule, the Mx1 (AML-12 cells) was 0.06, the OAS (AML-12 cells) was 0.04 and the PkR (AML-12 cells) was 0.02. The “ISG gene expression (OAS, Pkr, Mx1) in the livers, spleen and blood of mice” value [32] was “did not induce ISG gene expression” and the “IC50 (extracellular HHV-8 DNA)” value (HHV-8) was 1 µg/mL.
